The text below walks through data of PMC5148741.

What all share (assay): fluorescence polarisation
Experiment [1] concerns the target RRE of TbtF (residues 1–85).
Experiment [2] addresses MBP-TbtD.
The target of experiment [3] is TbtF.

Consider “synthetic TbtA leader peptide derivatized with fluorescein isothiocyanate (FITC) at the N-terminus”, for which, in experiment [1], the Kd came to 100 nM.

Turning to TbtA M(−27)A (peptide), the IC50 in experiment [2] turned out to be 1090 nM; in experiment [3], 2750 nM.

Turning to TbtA P(−28)A (peptide), the IC50 in experiment [2] came out at 2660 nM; in experiment [3], 850 nM.
